B1: Nbp2 WT (protein, UniProt Q12163 1-236, looked up)
NAP1-binding protein 2: MATMETTTQKDTNILKSGLKKTIGVLNEAVLQNGREVEAVQAGNSDTMEDTETTTIGYISIKDYAYADSNPLHYGYFDGDNEEDEMVSDSSNGEDTYNKRQSITLPDDYIVNQRAVALYDFEPENDNELRLAEGDIVFISYKHGQGWLVAENESGSKTGLVPEEFVSYIQPEDGENEVENKARPFYLTHLITQSVSPKNNIDNTNEDEYDDNDEWEDIDDVAEVEADMKTKLDISD
B2: Myo5 WT (protein, UniProt Q04439 1-1219, looked up)
Myosin-5: MAILKRGARKKVHQEPAKRSANIKKATFDSSKKKEVGVSDLTLLSKISDEAINENLKKRFLNATIYTYIGHVLISVNPFRDLGIYTDAVMNEYKGKNRLEVPPHVFAIAESMYYNMKSYNENQCVIISGESGAGKTEAAKRIMQYIAAASSTHTESIGKIKDMVLATNPLLESFGCAKTLRNNNSSRHGKYLEIKFNNQFEPCAGNITNYLLEKQRVVSQIKNERNFHIFYQFTKGASDAYRQTFGVQKPEQYVYTAAAGCISAETIDDLQDYQETLKAMRVIGLGQEEQDQIFRMLAAILWIGNVSFIENEEGNAQVRDTSVTDFVAYLLQIDSQLLIKSLVERIMETNHGMKRGSVYHVPLNIVQADAVRDALAKAIYNNLFDWIVSRVNKSLQAFPGAEKSIGILDIYGFEIFEHNSFEQICINYVNEKLQQIFIQLTLKSEQETYEREKIQWTPIKYFDNKVVCDLIEARRPPGIFAAMNDSVATAHADSNAADQAFAQRLNLFTTNPHFDLRSNKFVIKHYAGDVTYDIDGITDKNKDQLQKDLVELIGTTTNTFLATIFPDTVDRESKRRPPTAGDKIIKSANDLVETLSKAQPSYIRTIKPNETKSPNDYDDRQVLHQIKYLGLQENVRIRRAGFAYRQVFEKFVERFYLLSPHCSYAGDYTWQGDTLDAVKYILQDSSIPQQEYQLGVTSVFIKTPETLFALEHMRDRYWHNMAARIQRAWRRFLQRRIDAATKIQRTIRERKEGNKYEKLRDYGTKVLGGRKERRSMSLLGYRAFMGDYLSCNESKSKGAYIKRQVSIKEKVIFSIHGEALHTKFGRSAQRLKKTFLLTPTTLYIVGQTLVQNAMTYTQDYKIDVRNIQAVSLTNLQDDWVAIKLASSGQPDPLINTYFKTELITHLKRLNDKIQIKIGSAIEYQKKPGKLHSVKCQINESAPKYGDIYKSSTISVRRGNPPNSQVHKKPRKKSSISSGYHASSSQATRRPVSIAAAQHVPTAPASRHSKKPAPPPPGMQNKAATRRSVPNPASTLTASQSNARPSPPTAATRATPAATPAAAAMGSGRQANIPPPPPPPPPSSKPKEPMFEAAYDFPGSGSPSELPLKKGDVIYITREEPSGWSLGKLLDGSKEGWVPTAYMKPHSGNNNIPTPPQNRDVPKPVLNSVQHDNTSANVIPAAAQASLGDGLANALAARANKMRLESDDEEANEDEEEDDW
B3: Sla1 WT (protein, UniProt P32790 1-1244, looked up)
Actin cytoskeleton-regulatory …: MTVFLGIYRAVYAYEPQTPEELAIQEDDLLYLLQKSDIDDWWTVKKRVIGSDSEEPVGLVPSTYIEEAPVLKKVRAIYDYEQVQNADEELTFHENDVFDVFDDKDADWLLVKSTVSNEFGFIPGNYVEPENGSTSKQEQAPAAAEAPAATPAAAPASAAVLPTNFLPPPQHNDRARMMQSKEDQAPDEDEEGPPPAMPARPTATTETTDATAAAVRSRTRLSYSDNDNDDEEDDYYYNSNSNNVGNHEYNTEYHSWNVTEIEGRKKKKAKLSIGNNKINFIPQKGTPHEWSIDKLVSYDNEKKHMFLEFVDPYRSLELHTGNTTTCEEIMNIIGEYKGASRDPGLREVEMASKSKKRGIVQYDFMAESQDELTIKSGDKVYILDDKKSKDWWMCQLVDSGKSGLVPAQFIEPVRDKKHTESTASGIIKSIKKNFTKSPSRSRSRSRSKSNANASWKDDELQNDVVGSAAGKRSRKSSLSSHKKNSSATKDFPNPKKSRLWVDRSGTFKVDAEFIGCAKGKIHLHKANGVKIAVAADKLSNEDLAYVEKITGFSLEKFKANDGSSSRGTDSRDSERERRRRLKEQEEKERDRRLKERELYELKKARELLDEERSRLQEKELPPIKPPRPTSTTSVPNTTSVPPAESSNNNNSSNKYDWFEFFLNCGVDVSNCQRYTINFDREQLTEDMMPDINNSMLRTLGLREGDIVRVMKHLDKKFGRENIASIPTNATGNMFSQPDGSLNVATSPETSLPQQLLPQTTSPAQTAPSTSAETDDAWTVKPASKSESNLLSKKSEFTGSMQDLLDLQPLEPKKAAASTPEPNLKDLEPVKTGGTTVPAAPVSSAPVSSAPAPLDPFKTGGNNILPLSTGFVMMPMITGGDMLPMQRTGGFVVPQTTFGMQSQVTGGILPVQKTGNGLIPISNTGGAMMPQTTFGAAATVLPLQKTGGGLIPIATTGGAQFPQTSFNVQGQQQLPTGSILPVQKTANGLISANTGVSMPTVQRTGGTMIPQTSFGVSQQLTGGAMMTQPQNTGSAMMPQTSFNAVPQITGGAMMPQTSFNALPQVTGGAMMPLQRTGGALNTFNTGGAMIPQTSFSSQAQNTGGFRPQSQFGLTLQKTGGIAPLNQNQFTGGAMNTLSTGGVLQQQQPQTMNTFNTGGVMQELQMMTTFNTGGAMQQPQMMNTFNTDGIMQQPQMMNTFNTGGAMQQPQQQALQNQPTGFGFGNGPQQSRQANIFNATASNPFGF
B4: Boi2 WT (protein, UniProt P39969 1-1040, looked up)
BEM1-interacting protein 2: MSNDREVPTLSQLNTTVSRDKDVSDTLSPDFDSKGSATGRDGGNFPMYIAINEYFKRMEDELDMKPGDKIKVITDDEEYKDGWYFGRNLRTNEEGLYPVVFTQKITVEKAPTLMRAKSTKRIYSPLTNEDPLLSSTFISENDSNSELPTPQPIETAASISRTANGKIERNLSLKNTMSDIDNALLEFKDDSIGPPDRFINSGRDEEHSITHETILSATDGLDVVESNSKPTTSSSTGFLNGDLENQATLINGIDTTKLNPVEAEFWSPEEITAYFIMEGYDVQSASRFQKHKISGKILLELELVHLKELDINSFGTRFEIFKEIEKIKEAIRTNGRSLNRASKTNNANIYNQLMPPANVDQRASYRGHVRKTSQSLEDLPSQQNFIPTPRNTRNSSASKHRPKSLVFDSQEANANIAPDVQIPQVVEEMAGNENLFVSPRRAPKPPSYPSPAQPPKSPLLNNTRTSPSPAQLYSWQSPTLSFSGPKRTSYIDQYSSSDSNFNSRSALPKNNQGGGKALSPIPSPTRNSVRNEDSEGKLTSSSKRNSVPYYGYAPESSSDRKSSCSSHEEEQFQETMNTFERPTSSIYADGSTIASISNDKLAHEKEGKKKPTRHSSSLSSKSKSDSRRNSSLKRSSSASRTSSFKKSSFMLSPFRQQFTDNAARSSSPEENPITSMPSEKNSSPIVDKKSSKKSRSKRRSVSAKEAEIFTETVKDDKNKRSASEAIKGETLKGKSLRQMTARPVAKKKQTSAFIEGLRSISVKEAMKDADFSGWMSKKGSGAMSTWKTRFFTLHGTRLSYFSSTTDTRERGLIDITAHRVVPAKEDDKLVSLYAASTGKGRYCFKLLPPQPGSKKGLTFTQPRTHYFAVDNKEEMRGWMAALIKTTIDIDTSVPIISSYTTPTVSLSKAQEMLAEAREETKLREQQMLENEEDEDQFLWDQQQLQQQQHDNNQGQADRTISASTQRTSDEDNTISTPNLSSANNTTIGSNGFSSPFLLASGLLSPGVARNSSMRGTEKKGKFSTEEDYFGDNSKHKTDKI
B5: Abp1 WT (protein, UniProt P15891 2-592, looked up)
Actin-binding protein: ALEPIDYTTHSREIDAEYLKIVRGSDPDTTWLIISPNAKKEYEPESTGSSFHDFLQLFDETKVQYGLARVSPPGSDVEKIIIIGWCPDSAPLKTRASFAANFAAVANNLFKGYHVQVTARDEDDLDENELLMKISNAAGARYSIQTSSKQQGKASTPPVKKSFTPSKSPAPVSKKEPVKTPSPAPAAKISSRVNDNNDDDDWNEPELKERDFDQAPLKPNQSSYKPIGKIDLQKVIAEEKAKEDPRLVQKPTAAGSKIDPSSDIANLKNESKLKRDSEFNSFLGTTKPPSMTESSLKNDDDKVIKGFRNEKSPAQLWAERKAKQNSGNAETKAEAPKPEVPEDEPEGEPDVKDLKSKFEGLAASEKEEEEMENKFAPPPKKSEPTIISPKPFSKPQEPVKAEEAEQPKTDYKKIGNPLPGMHIEADNEEEPEENDDDWDDDEDEAAQPPLPSRNVASGAPVQKEEPEQEEIAPSLPSRNSIPAPKQEEAPEQAPEEEIEEEAEEAAPQLPSRSSAAPPPPPRRATPEKKPKENPWATAEYDYDAAEDNELTFVENDKIINIEFVDDDWWLGELEKDGSKGLFPSNYVSLGN
B6: Pin3 WT (protein, UniProt Q06449 2-215, looked up)
[PSI+] inducibility protein 3: SASLINRSLTNIRTELDFLKGSNVISNDVYDQINKSLPAKWDPANAPRNASPASLEYVEALYQFDPQQDGDLGLKPGDKVQLLEKLSPEWYKGSCNGRTGIFPANYVKPAFSGSNGPSNLPPPPQYKAQELQQIPTQNSAASSYQQQPFPPPSTNYYQQPQQQPQQAPPPQQQQQQQQHQSSHSHLKSFGSKLGNAAIFGAGASIGSDIVNNIF
B7: Sho1 WT (protein, UniProt P40073 1-367, looked up)
High osmolarity signaling …: MSISSKIRPTPRKPSRMATDHSFKMKKFYADPFAISSISLAIVSWVIAIGGSISSASTNESFPRFTWWGIVYQFLIICSLMLFYCFDLVDHYRIFITTSIAVAFVYNTNSATNLVYADGPKKAAASAGVILLSIINLIWILYYGGDNASPTNRWIDSFSIKGIRPSPLENSLHRARRRGNRNTTPYQNNVYNDAIRDSGYATQFDGYPQQQPSHTNYVSSTALAGFENTQPNTSEAVNLHLNTLQQRINSASNAKETNDNSNNQTNTNIGNTFDTDFSNGNTETTMGDTLGLYSDIGDDNFIYKAKALYPYDADDDDAYEISFEQNEILQVSDIEGRWWKARRANGETGIIPSNYVQLIDGPEEMHR

The test concerns SH3-deleted bait proteins (1xFLAG). Nature of the test: Western blot expression level of SH3-deleted baits (Fig. S1F-G). To be noted: Western blot Flag signal, 1xFLAG-tagged WT or SH3-deleted bait; sheet FigS1F-G. Type of test: cell-based, Saccharomyces cerevisiae. As for the experimental part: Precultures of yeast cells expressing baits fused with the DHFR F[1,2]-FLAG were grown overnight at 30 °C with agitation in synthetic complete medium. The next day, cells were expanded in synthetic complete medium to reach their exponential phase (OD600 of around 1.0), pelleted, and frozen at −80 °C. The equivalent of fifty OD600 of cells was resuspended in ice-cold yeast lysis buffer (10 mM Tris-HCl pH 7.4, 150 mM NaCl, 0.5 mM EDTA (Millipore Sigma), 1% Triton X-100 (Millipore Sigma), and one cOmplete Mini Protease Inhibitor Cocktail (Millipore Sigma) per 10 mL) with […] glass beads (Millipore Sigma) and disrupted at 4 °C by 10 cycles of 2 min vortexing and 2 min cooldown. The equivalent of […] of lysed cells was used for the immunoprecipitation of the bait proteins using FLAG-M2 agarose beads (Millipore Sigma). The beads were incubated with the cell lysates for 120 min at 4 °C with a slow rotation, followed by three washes with the yeast lysis buffer.
Protein extracts and affinity-purified baits from yeast and human lysed cells were migrated on 10% polyacrylamide gels. The separated proteins were then transferred to nitrocellulose membranes. Validation of correct protein loading was done with ponceau staining of the membranes. Before the primary antibody incubations, membranes were blocked in 5% milk. Protein signals were detected on an Amersham Imager 600RGB (GE Healthcare) following the incubation of the membranes with the appropriate HRP-conjugated secondary antibodies and the Clarity Western ECL Substrate (Bio-Rad). The antibodies used in this study are M2-HRP (A8592, Sigma, 1/50,000), rabbit anti-FLAG (F7425, Sigma, 1/1000), PAK (SC-881, Santa Cruz, 1/200), p130cas/BCAR1 (SC-860, Santa Cruz, 1/200), actin (Cell Signaling Technology, 1/2000), anti-mouse HRP (Cell Signaling Technology, 1/10,000) and anti-rabbit HRP (Cell Signaling Technology, 1/10,000). The quantification of the WB signals was performed with the Amersham Imager 600 analysis software (GE Healthcare).
In general terms: In western blotting, separated proteins are transferred to a membrane and probed.
In turn, B1 displayed a Flag of 158710.
As for B2, the figure is 93590; as for B3, 58812.
For the molecule B4, the Flag came to 12024.
Consider B5, for which the Flag is 9263.
Regarding B6, the Flag worked out at 304553.
As for B7, the figure is 42239.

The values above are taken from PMC7954794, “Protein context shapes the specificity of SH3 domain-mediated interactions in vivo” (Nature Communications, 2021).
